B1: human dual oxidase 1 (hDUOX1), matured protein 20-1551 with N-terminal GFP tag (enzyme, UniProt Q9NRD9-1 20-1551, looked up)
chain: GAQNPISWEVQRFDGWYNNLMEHRWGSKGSRLQRLVPASYADGVYQPLGEPHLPNPRDLSNTISRGPAGLASLRNRTVLGVFFGYHVLSDLVSVETPGCPAEFLNIRIPPGDPMFDPDQRGDVVLPFQRSRWDPETGRSPSNPRDPANQVTGWLDGSAIYGSSHSWSDALRSFSRGQLASGPDPAFPRDSQNPLLMWAAPDPATGQNGPRGLYAFGAERGNREPFLQALGLLWFRYHNLWAQRLARQHPDWEDEELFQHARKRVIATYQNIAVYEWLPSFLQKTLPEYTGYRPFLDPSISSEFVAASEQFLSTMVPPGVYMRNASCHFQGVINRNSSVSRALRVCNSYWSREHPSLQSAEDVDALLLGMASQIAEREDHVLVEDVRDFWPGPLKFSRTDHLASCLQRGRDLGLPSYTKARAALGLSPITRWQDINPALSRSNDTVLEATAALYNQDLSWLELLPGGLLESHRDPGPLFSTIVLEQFVRLRDGDRYWFENTRNGLFSKKEIEEIRNTTLQDVLVAVINIDPSALQPNVFVWHKGDPCPQPRQLSTEGLPACAPSVVRDYFEGSGFGFGVTIGTLCCFPLVSLLSAWIVARLRMRNFKRLQGQDRQSIVSEKLVGGMEALEWQGHKEPCRPVLVYLQPGQIRVVDGRLTVLRTIQLQPPQKVNFVLSSNRGRRTLLLKIPKEYDLVLLFNLEEERQALVENLRGALKESGLSIQEWELREQELMRAAVTREQRRHLLETFFRHLFSQVLDINQADAGTLPLDSSQKVREALTCELSRAEFAESLGLKPQDMFVESMFSLADKDGNGYLSFREFLDILVVFMKGSPEEKSRLMFRMYDFDGNGLISKDEFIRMLRSFIEISNNCLSKAQLAEVVESMFRESGFQDKEELTWEDFHFMLRDHNSELRFTQLCVKGVEVPEVIKDLCRRASYISQDMICPSPRVSARCSRSDIETELTPQRLQCPMDTDPPQEIRRRFGKKVTSFQPLLFTEAHREKFQRSCLHQTVQQFKRFIENYRRHIGCVAVFYAIAGGLFLERAYYYAFAAHHTGITDTTRVGIILSRGTAASISFMFSYILLTMCRNLITFLRETFLNRYVPFDAAVDFHRLIASTAIVLTVLHSVGHVVNVYLFSISPLSVLSCLFPGLFHDDGSEFPQKYYWWFFQTVPGLTGVVLLLILAIMYVFASHHFRRRSFRGFWLTHHLYILLYVLLIIHGSFALIQLPRFHIFFLVPAIIYGGDKLVSLSRKKVEISVVKAELLPSGVTHLRFQRPQGFEYKSGQWVRIACLALGTTEYHPFTLTSAPHEDTLSLHIRAAGPWTTRLREIYSAPTGDRCARYPKLYLDGPFGEGHQEWHKFEVSVLVGGGIGVTPFASILKDLVFKSSVSCQVFCKKIYFIWVTRTQRQFEWLADIIREVEENDHQDLVSVHIYITQLAEKFDLRTTMLYICERHFQKVLNRSLFTGLRSITHFGRPPFEPFFNSLQEVHPQVRKIGVFSCGPPGMTKNVEKACQLINRQDRTHFSHHYENF
modifications: N-linked glycosylation
notes: human DUOX1, matured protein residues 20-1551; Secretion guided by a rat FSHbeta signal peptide before the GFP tag; GFP-tagged protein is 219 kDa; also called GFP-tagged hDUOX1; WT hDOUX1; source: HEK293F, BacMam baculovirus infection; digitonin-solubilised membrane for FSEC; purified with hDUOXA1 (Streptactin beads, peptidisc with NSPr, Superose 6 increase) for cryo-EM; not shown: GFP, …
B2: human dual oxidase maturation factor 1 (hDUOXA1), as in the purified peptidisc complex (natural protein)
chain: MATLGHTFPFYAGPKPTFPMDTTLASIIMIFLTALATFIVILPGIRGKTRLFWLLRVVTSLFIGAAILAVNFSSEWSVGQVSTNTSYKAFSSEWISADIGLQVGLGGVNITLTGTPVQQLNETINYNEEFTWRLGENYAEEYAKALEKGLPDPVLYLAEKFTPRSPCGLYRQYRLAGHYTSAMLWVAFLCWLLANVMLSMPVLVYGGYMLLATGIFQLLALLFFSMATSLTSPCPLHLGASVLHTHHGPAFWITLTTGLLCVLLGLAMAVAHRMQPHRLKAFFNQSVDEDPMLEWSPEEGGLLSPRYRSMADSPKSQDIPLSEASSTKAY
modifications: N-linked glycosylation on N109
notes: human DUOXA1; cDNA cloned into a non-tagged BacMam vector or one with C-terminal MBP-mScarlet tag; the non-tagged one is surmised here; source: HEK293F, BacMam baculovirus infection, co-expressed with hDUOX1 from a bicistronic vector; purified with hDUOX1 (Streptactin beads, peptidisc, Superose 6 increase)

Legend:
[1] = target: the molecule itself; assay: SEC; fluorescence size-exclusion chromatography (FSEC) of GFP-tagged hDUOX1 co-expressed with hDUOXA1; membrane solubilised in TBS + 1% digitonin, 1 h, 4 °C
[2] = target: B1; assay: cryo-EM structure; hDUOX1-hDUOXA1 complex in peptidisc (NSPr); 2.5 mM EGTA (low calcium) or 0.5 mM free calcium (high calcium); 100 uM FAD, 500 uM NADPH, 0.5 mM fluorinated octyl-maltoside; conditions: both partners purified

Row | Binder | binding result [1] | stoichiometry N [2]
1 | B1 | binds | 
2 | B2 |  | 1 hDUOXA1 per hDUOX1 (2:2)
